Assay results taken from US7812117B2, “Vasostatin as marrow protectant” (The United States of America as represented by the …, priority 1998, dated 2010).

Key:
[1] = tested on: peripheral white blood cells; test: Peripheral white blood cell counts after total body irradiation of C57BL/6N mice; type: in vivo; conditions: vaso 300 μg/mouse/day s.c.
Method: In a subsequent experiment, groups of 8 week old C57BL/6N mice were irradiated with either 300 or 400 rad total body irradiation and treated the mice daily with s.c. inoculations of either buffer of vaso (300 μg/mouse/day). Peripheral white blood cell counts were obtained on days 5 and 9 post irradiation. On day 5, the total white cell count in the mice that had received 300 rad total body irradiation and had been treated with buffer was 1.2×10^3/mm^3 as opposed to 2.14×10^3/mm^3 in the mice treated with vaso. Also on day 5 post-irradiation, the total white cell count in the mice that had received 400 rad total body irradiation and had been treated with buffer was 0.66×10^3/mm^3 as opposed to 1.22×10^3/mm^3 in the mice treated with vaso. On day 9 post irradiation, the total white cell count in the mice that had received 400 rad total body irradiation and had been treated with buffer was 0.79×10^3/mm^3 as opposed to 1.37×10^3/mm^3 in the mice treated with vaso.

murine bone marrow cells = test: Murine bone marrow cell number in culture (Owen's reagent formazan absorbance at 490 nm); type: cell-based, mouse
Method: FIG. 7 is a series of bar graphs showing the effects of vaso on growth-factor induced proliferation of bone marrow cells with or without methotrexate. Bone marrow cells populations, obtained from the femural cavities of C57BL/6NCR mice (3.5 months of age), were cultured in 24 well tissue culture plates in culture medium alone or medium containing a mixture of the growth factors (GF) IL-3 (20 ng/ml), IL-6 (100 ng/ml) and Stem Cell Factor (100 ng/ml). Vaso was added to the cultures at concentrations ranging between 1.25 and 10 μg/ml. Methotrexate was added to the cultures at the concentration of 100 nM. FIG. 7A is a bar graph of cell proliferation as measured by ^3H thymidine incorporation during the final 22 hr of a 7-day culture. The results reflect the mean cpm of triplicate cultures. FIG. 7B is a bar graph of cell numbers measured as mean absorbance (490 nM) after conversion of Owen's reagent into colored formazan product (One Solution Reagent, Promega).
FIG. 9 is a series of bar graphs showing that vaso increases bone marrow cell proliferation in vitro. Bone marrow cells populations, obtained from the femural cavities of C57BL/6NCR mice (8 weeks of age), were cultured in culture medium alone or in medium supplemented with a mixture of IL-3 (20 ng/ml), IL-6 (100 ng/ml) and Stem Cell Factor (SF, 100 ng/ml). […] FIG. 9A is a bar graph of cell proliferation as measured by ^3H thymidine incorporation during the final 20-23 hr of a 4, 5 or 6-day culture. FIG. 9B is a bar graph of cell number measured as absorbance (490 nM) after conversion of Owen's reagent into colored formazan product (One Solution Reagent, Promega).
In the absence of exogenously added growth factors, vaso at the highest concentration used (10 μg/ml) had low level stimulatory effect (approximately 2-fold stimulation of background cpm).
Stimulation of bone marrow cell proliferation by vaso was associated with an increased number of bone marrow cells, measured as absorbance from the conversion of Owen's reagent into a colored formazan product (One Solution Reagent, Promega, Madison. Wis.). […]

[2] = tested on: variety of cell and cell lines; test: Proliferation of a variety of cells and cell lines (mononuclear cells, lymphoid, tumor lines, fibroblasts); type: cell-based, human; conditions: vaso 0.25 to 50 μg/ml
Text: Human mononuclear cells, and mononuclear cells enriched for B or T cells, were used in proliferation assays in the presence of phytohemagglutinin(Sigma), pokeweed mitogen (Sigma) or Epstein-Barr virus (B95-8 strain), as described previously (Tosato et al., 1988). The lymphoblastoid cell line VDS-0, the Burkitt cell lines CA46, BL41, KK124, Ag876, SHO (Cherney et al., 1997), the T-cell line Molt-4 (ATCC), the Hodgkin's lymphoma cell line Hs445 (ATCC); the prostate adenocarcinoma cell lines TSU-Prl (from A. Passaniti, NIH, Baltimore, Md.), Du145 (ATCC), and PC3 (ATCC), and the acute promyelocytic leukemia cell line HL60 (ATCC) were cultured in RPMI 1640 medium with 10% heat-inactivated FCS (BioWhittaker), […] L-glutamine (Sigma) and 5 μg/ml gentamicin, and tested in 3-5 days proliferation assays at cell densities varying from 300 to 2400 cells/microwell. The neuroblastoma cell line SKNMC (ATCC) was cultured in EMEM medium BioWhittaker) with 10% heat inactivated FCS and gentamicin and tested for proliferation at 125-1000 cells/well. The lung adenocarcinoma cell line A549 (ATCC) was cultured in F-12 Nutrient Mixture (HAM, Gibco BRL) with 10% heat-inactivated FCS, gentamicin and tested for proliferation at 250-2000 cells/well. […]

[3] = tested on: fetal bovine heart endothelial cells (FBHEC); conditions: as previously reported (Pike et al., 1998; 1999); cited from earlier work

B1: vaso: N-terminal domain of calreticulin (amino acids 1-180, SEQ ID NO:3); given as fusion protein with maltose binding protein, MBP-vaso (protein)
chain: EPAVYFKEQFLDGDGWTSRWIESKHKSDFGKFVLSSGKFYGDEEKDKGLQTSQDARFYALSASFEPFSNKGQTLVVQFTVKHEQNIDCGGGYVKLFPNSLDQTDMHGDSEYNIMFGPDICGPGTKKVHVIFNYKGKNVLINKDIRCKDDEFTHLYTLIVRPDNTYEVKIDNSQVESGSLE
modifications: Vasostatin
Question: Which “total white cell count, day 5 post irradiation” value ([1]; 300 rad total body irradiation, buffer 1.2×10^3) does the source give for B1 here?
Answer: Its value is 2.14×10^3 /mm^3.

Question: And the “total white cell count, day 5 post irradiation” value ([1]; 400 rad total body irradiation, buffer 0.66×10^3)?
Answer: Its value is 1.22×10^3 /mm^3.

Question: And the “total white cell count, day 9 post irradiation” value ([1]; 400 rad total body irradiation, buffer 0.79×10^3)?
Answer: The value was 1.37×10^3 /mm^3.

Question: And the “number of cells in culture” value (murine bone marrow cells; vaso 10 μg/ml added to medium alone)?
Answer: The value was “increased only minimally”.

Question: And the “number of cells counted after 5 days of culture” value (murine bone marrow cells; vaso 10 μg/ml, growth factors (IL-3, IL-6 and Stem Cell Factor) either alone or with etoposide 77 nM)?
Answer: Its value is “increased significantly”.

Question: And the “number of living bone marrow cells in culture” value (murine bone marrow cells; vaso with methotrexate 100 nM and growth factors)?
Answer: Its value is “increase in the number of living bone marrow cells”.

Question: What about the “effects on proliferation of a variety of cell and cell lines” value [2] of the same molecule?
Answer: Its value is “minimal stimulatory (or inhibitory) effects”.

Question: And the “proliferation of primary cultures of FBHEC” value [3]?
Answer: The value was “consistently inhibited the proliferation”.
